Assay: label from the status in PepcDB records
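Further: failed if final PepcDB status was selected cloned or expressed and not failed if soluble or beyond.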

| Sequence | protein production |
| --- | --- |
| MKGNFHSTYDQGFARVAACTTTVHIGDPASNVAGILDTCRELSSRSVAIAVFPELCLTGYAIDDLLLQDVVLDAVLDAIETVRQASRSLFPVIIVGAPLQRGNRLYNCAVVIHRGQVLGVVPKSHLPNYREFYEKRHFAVGAGTTGMIDLSGRQKSHAASTEIPFGPDQLFRATDLPDLTFHVEVCEDLWVPVAPSSQAALAGAVVEVNLSGSPITVGKSRQRHELCKVTSSRNLQAYVYAAAGPGESSTDLSWDGQTMIYENGSLLAATDRFSPEPGYCLADIDLDLLRQERLRQGSFDDNALAQPAQAPWRTTIFTLDPPHDDIGLERPVNRFPFVPNDPDQLAQDCYEAYNIQVYGLRRRLESMGSPKIVIGVSGGLDSTHALLVAAKAMDQMGRPRTDILAFTMPGFATTDHTKNNALDMCRALGIPCEVLDIRPAATQMLKGMSHPAGDGAEVYDVTFENVQAGLRYDYLFRIANQRGGIVLGTGDLSELALGWCTFGVGDQMSHYGVNTGVPKTLIQHLIRWCISSGQFNEATNVVLESVLGTEISPELVPARPGEKIQSTQAKIGPYELQDFTLYHLLRHGMRPSRIIFLSHHAWRDASVGSWPPGFRDEDRHSYDLSAIKDWTRLFLRRFVGNQFKRSTLPNGPKVVAGGSLSPRGDWRMPSDAVVRAWLDDLETVPDERF | failed |
| MFALVLAAGRSRRFDGDKRKALLPCGRTLLTACLETAGKVFTETGVVLREDDEVQTLGIPSKVTIIRCKHADLGMGHSLAAGIAAALNSSADAVAILLADMPWIEPQTLRDLARLADPQRIALPMHEGQRGHPVIIGRRFWPRLLALEGDQGAKALITNNPAFCDVMNCDDPGVLRDADTRSALAIACRQHLTAGRDLEHHHHHH | failed |
| MKFLTTNFLKCSVKACDTSNDNFPLQYDGSKCQLVQDESIEFNPEFLLNIVDRVDWPAVLTVAAELGNNALPPTKPSFPSSIQELTDDDMAILNDLHTLLLQTSIAEGEMKCRNCGHIYYIKNGIPNLLLPPHLV | failed |
| MECPFVSVVVGIRNEERYIEECIESLLRLDYPQDSYEIIIVDGMSTDRTRELVQKYPVRLLLNERKNVAAARNLGVQNSMGDFVAFTDGDCKADPLWLKTLVTEMKNAPEDVVCVGGPNLIFDTDPVFGRVVGHAQETFLGSGGSAQSKNSLKKHYVSSLPNCNAMYKKNTIIEAGYFDERFVVGQDGDLNYRINKKGYKFLYIPEAIVLHHRRGTLKSFSVRMFKYGMWMGELFKKHGELVRWYAILPSVAILFSVFSLIISPVYTTPIIVLLLMGFLYLILVFIASIQVIFKMKSKYGLYALVVIPVQHITYGMGFLYSFANSLYKSKGVSSSIVQN | failed |
| MEEVIWEQYTVTLQKDSKRGFGIAVSGGRDNPHFENGETSIVISDVLPGGPADGLLQENDRVVMVNGTPMEDVLHSFAVQQLRKSGKIAAIVVKRPRKVQVAPL | not failed |
| ILHRDADFLLRALQPDDFVRTSRYENANREHLAPWEPLRDPGYFSVDNARARTLLQVASMDEGEALLLLLLDPDDGEVLGRCSYTNIVRGVFQACHLGFSLAAAAQGRGLMARALRVANRYCFEQLGLHRIMASHLPRNARSERLLESLGFEKEGYARAYLKIAGVWEDHVLR | failed |
| MIDFTKSKQYTLSIRLSTDGFSFSIYNPINDNSQSLFEKEVDTSLSLTANLKNVFHESDFLSYSYKRVNIMIASKRFTMIPLELFEEEQAELLFYHNHQKRENEIVMYNILKKNNVVIIFGIDKSTYTFLNEQYPEARFYSQSTPLIEYFSIKSRLGNSKKMYASVRKDAIDIYCFERGQLLLANSFECMQTEDRIYYLLYVWKQLEFNQERDELHLTGTLSDKETLMNELKKFILQVFIMNPANNIDMQALLTCE | not failed |
| KNYDLSDLPGPPSKPQVTDVTKNSVTLSWQPGTPGTLPASAYIIEAFSQSVSNSWQTVANHVKTTLYTVRGLRPNTIYLFMVRAINPQGLSDPSPMSDPVRTQD | not failed |
| MSLNSEAKSRIACDIDFDRDGRQAGYARAPLSRNNSGWGTVEIPITVVKNGSGPTVLLTGGVHGDEYEGQIAISDLARRLRPEEVQGRVIMLPAVNMPAIQSDTRLSPVDGRDINRCFPGDPRGTFSQMLAHFLDSVILPMADISVDMHTAGHSYDSTPSTNMHYLADPALRARTLAAAEAFGAPHNVVFGGVDEGSTFTSCVERRGIVSLGTELGGWGRVNIEGVRIGKRGILNVLKHMGVIEGTPETAQRGGAAGTRHMMVREADAYVMAPRTGLFEPTHYVGEEVRTGETAGWIHFVEDVDTAPLELLYRRDGIVWFGAGPGRVTRGDAVAVVMEDYNDTWPQEGHHHHHH | not failed |

— a protein production outcome set (Wang et al. 2014)
